± gives the standard deviation of the averaged measurements.
B1: library; a variant is named by its letters at N, in order (parent)
chain: GCUGUCACCGAGAAACUGUGAAGUAUAUCUUAAACCUGGGCACUUAAAAGAUAUAUGGAGUUAGUAGUGCAACCUGCUCGGUCUGAUGAGUCCNNNNNNGGACGAAACAGC

What was measured:
cyclic di-GMP [1] = variants of: B1; assay: normalized RNA/DNA level without ligand (relative to sTRSVctl = 100) (log10 (% of sTRSVctl)); HEK293T; ligand: cyclic di-GMP (c-di-GMP-II aptamer); higher = less ribozyme self-cleavage, higher mRNA level; details: reporter: mCherry (pCS4076), ligand present: no
Summary of the method: (§1)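 RNA level was computed as RNA reads over DNA reads divided by a spiked-in non-cleaving sequence or by the top sequences, then scaled and log-transformed. Scaling was ×100 with log10, the top group was 25 sequences, and the threshold was ≥100 DNA reads. The reads came from HEK293T cells transfected at 4 µg per 6-well well with ribozyme switch library plasmids (mCherry, or eGFP in some ligand experiments). Total RNA was extracted with EDTA 72 h after transfection, with any ligand added 1 h before it.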

cyclic di-GMP [2] = variants of: B1; assay: normalized RNA/DNA level with ligand (relative to sTRSVctl = 100) (log10 (% of sTRSVctl)); HEK293T; ligand: cyclic di-GMP (c-di-GMP-II aptamer); ligand concentration (+) RNA-Seq: 1 mM; higher = less ribozyme self-cleavage, higher mRNA level; details: reporter: mCherry (pCS4076), ligand present: yes
Summary of the method: as §1

| Variant | normalized RNA/DNA level without ligand (log10) (cyclic di-GMP [1]) | normalized RNA/DNA level with ligand (log10) (cyclic di-GMP [2]) |
| --- | --- | --- |
| GCUGUCACCGAGAAACUGUGAAGUAUAUCUUAAACCUGGGCACUUAAAAGAUAUAUGGAGUUAGUAGUGCAACCUGCUCGGUCUGAUGAGUCCCUACUCGGACGAAACAGC | 1.7 ± 0.034 | 1.83 ± 0.069 |
| GCUGUCACCGAGAAACUGUGAAGUAUAUCUUAAACCUGGGCACUUAAAAGAUAUAUGGAGUUAGUAGUGCAACCUGCUCGGUCUGAUGAGUCCAUCAAAGGACGAAACAGC | 1.57 ± 0.059 | 1.77 ± 0.074 |
| GCUGUCACCGAGAAACUGUGAAGUAUAUCUUAAACCUGGGCACUUAAAAGAUAUAUGGAGUUAGUAGUGCAACCUGCUCGGUCUGAUGAGUCCUCUGCAGGACGAAACAGC | 1.748 ± 0.0085 | 1.85 ± 0.13 |
| GCUGUCACCGAGAAACUGUGAAGUAUAUCUUAAACCUGGGCACUUAAAAGAUAUAUGGAGUUAGUAGUGCAACCUGCUCGGUCUGAUGAGUCCCCAUAGGGACGAAACAGC | 1.4 ± 0.17 | 1.66 ± 0.043 |
| GCUGUCACCGAGAAACUGUGAAGUAUAUCUUAAACCUGGGCACUUAAAAGAUAUAUGGAGUUAGUAGUGCAACCUGCUCGGUCUGAUGAGUCCAAUAACGGACGAAACAGC | 1.634 ± 0.013 | 1.8 ± 0.092 |
| GCUGUCACCGAGAAACUGUGAAGUAUAUCUUAAACCUGGGCACUUAAAAGAUAUAUGGAGUUAGUAGUGCAACCUGCUCGGUCUGAUGAGUCCGCAAUUGGACGAAACAGC | 1.48 ± 0.086 | 1.69 ± 0.1 |
| GCUGUCACCGAGAAACUGUGAAGUAUAUCUUAAACCUGGGCACUUAAAAGAUAUAUGGAGUUAGUAGUGCAACCUGCUCGGUCUGAUGAGUCCUCCUUCGGACGAAACAGC | 1.71 ± 0.027 | 1.87 ± 0.11 |
| GCUGUCACCGAGAAACUGUGAAGUAUAUCUUAAACCUGGGCACUUAAAAGAUAUAUGGAGUUAGUAGUGCAACCUGCUCGGUCUGAUGAGUCCCCCGGGGGACGAAACAGC | 1.7187 ± 0.00061 | 1.91 ± 0.14 |
| GCUGUCACCGAGAAACUGUGAAGUAUAUCUUAAACCUGGGCACUUAAAAGAUAUAUGGAGUUAGUAGUGCAACCUGCUCGGUCUGAUGAGUCCUGGGCUGGACGAAACAGC | 1.81 ± 0.042 | 1.89 ± 0.089 |
| GCUGUCACCGAGAAACUGUGAAGUAUAUCUUAAACCUGGGCACUUAAAAGAUAUAUGGAGUUAGUAGUGCAACCUGCUCGGUCUGAUGAGUCCCAUUGCGGACGAAACAGC | 1.78 ± 0.056 | 1.85 ± 0.15 |
| GCUGUCACCGAGAAACUGUGAAGUAUAUCUUAAACCUGGGCACUUAAAAGAUAUAUGGAGUUAGUAGUGCAACCUGCUCGGUCUGAUGAGUCCACGUCGGGACGAAACAGC | 1.605 ± 0.011 | 1.81 ± 0.12 |
| GCUGUCACCGAGAAACUGUGAAGUAUAUCUUAAACCUGGGCACUUAAAAGAUAUAUGGAGUUAGUAGUGCAACCUGCUCGGUCUGAUGAGUCCCUAUUUGGACGAAACAGC | 1.59 ± 0.024 | 1.75 ± 0.08 |
| GCUGUCACCGAGAAACUGUGAAGUAUAUCUUAAACCUGGGCACUUAAAAGAUAUAUGGAGUUAGUAGUGCAACCUGCUCGGUCUGAUGAGUCCUGGAUGGGACGAAACAGC | 1.62 ± 0.027 | 1.82 ± 0.11 |
| GCUGUCACCGAGAAACUGUGAAGUAUAUCUUAAACCUGGGCACUUAAAAGAUAUAUGGAGUUAGUAGUGCAACCUGCUCGGUCUGAUGAGUCCCGAAGUGGACGAAACAGC | 1.676 ± 0.0054 | 1.84 ± 0.16 |
| GCUGUCACCGAGAAACUGUGAAGUAUAUCUUAAACCUGGGCACUUAAAAGAUAUAUGGAGUUAGUAGUGCAACCUGCUCGGUCUGAUGAGUCCCAAUGAGGACGAAACAGC | 1.53 ± 0.056 | 1.74 ± 0.12 |
| GCUGUCACCGAGAAACUGUGAAGUAUAUCUUAAACCUGGGCACUUAAAAGAUAUAUGGAGUUAGUAGUGCAACCUGCUCGGUCUGAUGAGUCCCUACCGGGACGAAACAGC | 1.82 ± 0.095 | 1.91 ± 0.098 |
| GCUGUCACCGAGAAACUGUGAAGUAUAUCUUAAACCUGGGCACUUAAAAGAUAUAUGGAGUUAGUAGUGCAACCUGCUCGGUCUGAUGAGUCCUAUUUUGGACGAAACAGC | 1.73 ± 0.062 | 1.84 ± 0.13 |
| GCUGUCACCGAGAAACUGUGAAGUAUAUCUUAAACCUGGGCACUUAAAAGAUAUAUGGAGUUAGUAGUGCAACCUGCUCGGUCUGAUGAGUCCACUGAGGGACGAAACAGC | 1.54 ± 0.11 | 1.71 ± 0.031 |
| GCUGUCACCGAGAAACUGUGAAGUAUAUCUUAAACCUGGGCACUUAAAAGAUAUAUGGAGUUAGUAGUGCAACCUGCUCGGUCUGAUGAGUCCGAGUUUGGACGAAACAGC | 1.79 ± 0.031 | 1.87 ± 0.11 |
| GCUGUCACCGAGAAACUGUGAAGUAUAUCUUAAACCUGGGCACUUAAAAGAUAUAUGGAGUUAGUAGUGCAACCUGCUCGGUCUGAUGAGUCCAGGACGGGACGAAACAGC | 1.589 ± 0.0076 | 1.7 ± 0.1 |
| GCUGUCACCGAGAAACUGUGAAGUAUAUCUUAAACCUGGGCACUUAAAAGAUAUAUGGAGUUAGUAGUGCAACCUGCUCGGUCUGAUGAGUCCCAAGCGGGACGAAACAGC | 1.74 ± 0.052 | 1.85 ± 0.11 |
| GCUGUCACCGAGAAACUGUGAAGUAUAUCUUAAACCUGGGCACUUAAAAGAUAUAUGGAGUUAGUAGUGCAACCUGCUCGGUCUGAUGAGUCCAGCGAUGGACGAAACAGC | 1.71 ± 0.015 | 1.87 ± 0.1 |
| GCUGUCACCGAGAAACUGUGAAGUAUAUCUUAAACCUGGGCACUUAAAAGAUAUAUGGAGUUAGUAGUGCAACCUGCUCGGUCUGAUGAGUCCGACCUCGGACGAAACAGC | 1.72 ± 0.047 | 1.86 ± 0.12 |
| GCUGUCACCGAGAAACUGUGAAGUAUAUCUUAAACCUGGGCACUUAAAAGAUAUAUGGAGUUAGUAGUGCAACCUGCUCGGUCUGAUGAGUCCUGAAUGGGACGAAACAGC | 1.72 ± 0.037 | 1.86 ± 0.12 |
| GCUGUCACCGAGAAACUGUGAAGUAUAUCUUAAACCUGGGCACUUAAAAGAUAUAUGGAGUUAGUAGUGCAACCUGCUCGGUCUGAUGAGUCCACACUGGGACGAAACAGC | 1.48 ± 0.04 | 1.68 ± 0.077 |
| GCUGUCACCGAGAAACUGUGAAGUAUAUCUUAAACCUGGGCACUUAAAAGAUAUAUGGAGUUAGUAGUGCAACCUGCUCGGUCUGAUGAGUCCUACUUAGGACGAAACAGC | 1.7 ± 0.055 | 1.84 ± 0.11 |

From the supplement of paper PMC6757056
